Test results reported in patent publication US20200079833A1 (AstraZeneca / MedImmune, published 2020).
Starred links: 1 amine or outer side, 2 acyl side, 3 side chain; linkers in the order of their positions; H or OH if unused. Non-standard residues stand in square brackets, D forms with d. Groups on a side chain read outwards from the residue. No end group written: not given here. *: point of attachment. γGlu = O=C(O)[C@H](CCC(=O)[*:2])N[*:1]; Palmitoyl = CCCCCCCCCCCCCCCC(=O)*; αMeF = C[C@](N)(Cc1ccccc1)C(=O)O; αMeK = C[C@](N)(CCCCN)C(=O)O; αMeS = C[C@](N)(CO)C(=O)O; Aib = CC(C)(N)C(=O)O

T1: glucose-dependent insulinotropic peptide (gastric inhibitory polypeptide) receptor (GIPR) (human, UniProt P48546 22-466)
T1 sequence (looked up): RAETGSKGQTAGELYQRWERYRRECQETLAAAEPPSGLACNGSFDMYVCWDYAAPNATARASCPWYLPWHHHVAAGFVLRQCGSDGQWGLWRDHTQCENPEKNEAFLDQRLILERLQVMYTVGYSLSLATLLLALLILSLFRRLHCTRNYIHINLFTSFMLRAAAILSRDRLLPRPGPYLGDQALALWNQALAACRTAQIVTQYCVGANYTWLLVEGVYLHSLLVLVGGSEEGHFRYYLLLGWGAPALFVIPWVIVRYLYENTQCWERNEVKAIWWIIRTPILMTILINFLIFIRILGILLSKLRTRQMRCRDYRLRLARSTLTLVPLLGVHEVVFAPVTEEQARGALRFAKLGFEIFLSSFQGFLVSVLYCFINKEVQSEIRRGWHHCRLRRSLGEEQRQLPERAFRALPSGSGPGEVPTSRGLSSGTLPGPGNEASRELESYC


Tests used:
Experiment in all cases: cell-based or functional assay
[1] = target: T1, glucose-dependent insulinotropic …
GLP-1 receptor (GLP-1R) = GLP-1 receptor (GLP-1R) (human, UniProt P43220 24-463)
glucagon receptor (GCGR) = glucagon receptor (GCGR) (human, UniProt P47871 26-477)
Sequence of glucagon receptor (GCGR) (P47871 26-477): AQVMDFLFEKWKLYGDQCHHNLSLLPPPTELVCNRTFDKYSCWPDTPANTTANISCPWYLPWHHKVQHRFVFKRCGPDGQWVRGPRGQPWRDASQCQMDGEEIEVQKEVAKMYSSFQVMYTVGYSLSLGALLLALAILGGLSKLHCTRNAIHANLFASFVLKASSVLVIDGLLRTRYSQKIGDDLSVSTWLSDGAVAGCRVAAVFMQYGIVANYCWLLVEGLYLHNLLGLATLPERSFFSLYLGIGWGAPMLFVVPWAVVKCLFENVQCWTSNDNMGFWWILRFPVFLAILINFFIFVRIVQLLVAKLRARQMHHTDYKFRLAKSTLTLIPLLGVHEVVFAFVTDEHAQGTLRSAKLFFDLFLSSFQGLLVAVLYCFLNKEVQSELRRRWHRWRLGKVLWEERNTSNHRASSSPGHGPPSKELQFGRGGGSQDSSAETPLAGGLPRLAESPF

Row | Binder | cAMP Primary assay EC50 GIP-R [1] | cAMP Primary assay EC50 GIP-R (2nd) [1] | cAMP Mean pM GLP-1R (GLP-1 receptor (GLP-1R)) | cAMP Primary assay EC50 GLP-1R n1 (GLP-1 receptor (GLP-1R)) | cAMP Primary assay EC50 GLP-1R n2 (GLP-1 receptor (GLP-1R)) | cAMP Primary assay EC50 Gluc-R (glucagon receptor (GCGR)) | cAMP Primary assay EC50 Gluc-R (2nd) (glucagon receptor (GCGR))
1 | H[Aib]EGS[αMeF]TSDV[αMeS]S[αMeF]LK([γGlu-Palmitoyl])GEAA[αMeK]E[αMeF]IA[αMeF]VV[αMeK]GG-NH2 (N-terminus assumed; SMILES CCCCCCCCCCCCCCCC(=O)N[C@@H](CCC(=O)NCCCC[C@H](NC(=O)[C@H](CC(C)C)NC(=O)[C@](C)(Cc1ccccc1)NC(=O)[C@H](CO)NC(=O)[C@](C)(CO)NC(=O)[C@@H](NC(=O)[C@H](CC(=O)O)NC(=O)[C@H](CO)NC(=O)[C@@H](NC(=O)[C@](C)(Cc1ccccc1)NC(=O)[C@H](CO)NC(=O)CNC(=O)[C@H](CCC(=O)O)NC(=O)C(C)(C)NC(=O)[C@@H](N)Cc1c[nH]cn1)[C@@H](C)O)C(C)C)C(=O)NCC(=O)N[C@@H](CCC(=O)O)C(=O)N[C@@H](C)C(=O)N[C@@H](C)C(=O)N[C@@](C)(CCCCN)C(=O)N[C@@H](CCC(=O)O)C(=O)N[C@@](C)(Cc1ccccc1)C(=O)N[C@H](C(=O)N[C@@H](C)C(=O)N[C@@](C)(Cc1ccccc1)C(=O)N[C@H](C(=O)N[C@H](C(=O)N[C@@](C)(CCCCN)C(=O)NCC(=O)NCC(N)=O)C(C)C)C(C)C)[C@@H](C)CC)C(=O)O) [SEQ ID NO 85] | 28 nM | 28 nM | 101 pM | 0.066 nM | 0.14 nM | 28 nM | 28 nM
2 | H[Aib]EGS[αMeF]TSDV[αMeS]S[αMeF]LEGK([γGlu-Palmitoyl])AA[αMeK]E[αMeF]IA[αMeF]VV[αMeK]GG-NH2 (N-terminus assumed; SMILES CCCCCCCCCCCCCCCC(=O)N[C@@H](CCC(=O)NCCCC[C@H](NC(=O)CNC(=O)[C@H](CCC(=O)O)NC(=O)[C@H](CC(C)C)NC(=O)[C@](C)(Cc1ccccc1)NC(=O)[C@H](CO)NC(=O)[C@](C)(CO)NC(=O)[C@@H](NC(=O)[C@H](CC(=O)O)NC(=O)[C@H](CO)NC(=O)[C@@H](NC(=O)[C@](C)(Cc1ccccc1)NC(=O)[C@H](CO)NC(=O)CNC(=O)[C@H](CCC(=O)O)NC(=O)C(C)(C)NC(=O)[C@@H](N)Cc1c[nH]cn1)[C@@H](C)O)C(C)C)C(=O)N[C@@H](C)C(=O)N[C@@H](C)C(=O)N[C@@](C)(CCCCN)C(=O)N[C@@H](CCC(=O)O)C(=O)N[C@@](C)(Cc1ccccc1)C(=O)N[C@H](C(=O)N[C@@H](C)C(=O)N[C@@](C)(Cc1ccccc1)C(=O)N[C@H](C(=O)N[C@H](C(=O)N[C@@](C)(CCCCN)C(=O)NCC(=O)NCC(N)=O)C(C)C)C(C)C)[C@@H](C)CC)C(=O)O) [SEQ ID NO 83] | 28 nM | 28 nM | 3.6 pM | 0.0032 nM | 0.004 nM | 28 nM | 28 nM
3 | H[Aib]EGS[αMeF]TSDV[αMeS]S[αMeF]LEK([γGlu-Palmitoyl])EAA[αMeK]E[αMeF]IA[αMeF]VV[αMeK]GG-NH2 (N-terminus assumed; SMILES CCCCCCCCCCCCCCCC(=O)N[C@@H](CCC(=O)NCCCC[C@H](NC(=O)[C@H](CCC(=O)O)NC(=O)[C@H](CC(C)C)NC(=O)[C@](C)(Cc1ccccc1)NC(=O)[C@H](CO)NC(=O)[C@](C)(CO)NC(=O)[C@@H](NC(=O)[C@H](CC(=O)O)NC(=O)[C@H](CO)NC(=O)[C@@H](NC(=O)[C@](C)(Cc1ccccc1)NC(=O)[C@H](CO)NC(=O)CNC(=O)[C@H](CCC(=O)O)NC(=O)C(C)(C)NC(=O)[C@@H](N)Cc1c[nH]cn1)[C@@H](C)O)C(C)C)C(=O)N[C@@H](CCC(=O)O)C(=O)N[C@@H](C)C(=O)N[C@@H](C)C(=O)N[C@@](C)(CCCCN)C(=O)N[C@@H](CCC(=O)O)C(=O)N[C@@](C)(Cc1ccccc1)C(=O)N[C@H](C(=O)N[C@@H](C)C(=O)N[C@@](C)(Cc1ccccc1)C(=O)N[C@H](C(=O)N[C@H](C(=O)N[C@@](C)(CCCCN)C(=O)NCC(=O)NCC(N)=O)C(C)C)C(C)C)[C@@H](C)CC)C(=O)O) [SEQ ID NO 84] | 27 nM | 27 nM | 8 pM | 0.0078 nM | 0.0081 nM | 27 nM | 27 nM
4 | H[Aib]EGS[αMeF]TSDV[αMeS]S[αMeF]K([γGlu-Palmitoyl])EGEAA[αMeK]E[αMeF]IA[αMeF]VV[αMeK]GG-NH2 (N-terminus assumed; SMILES CCCCCCCCCCCCCCCC(=O)N[C@@H](CCC(=O)NCCCC[C@H](NC(=O)[C@](C)(Cc1ccccc1)NC(=O)[C@H](CO)NC(=O)[C@](C)(CO)NC(=O)[C@@H](NC(=O)[C@H](CC(=O)O)NC(=O)[C@H](CO)NC(=O)[C@@H](NC(=O)[C@](C)(Cc1ccccc1)NC(=O)[C@H](CO)NC(=O)CNC(=O)[C@H](CCC(=O)O)NC(=O)C(C)(C)NC(=O)[C@@H](N)Cc1c[nH]cn1)[C@@H](C)O)C(C)C)C(=O)N[C@@H](CCC(=O)O)C(=O)NCC(=O)N[C@@H](CCC(=O)O)C(=O)N[C@@H](C)C(=O)N[C@@H](C)C(=O)N[C@@](C)(CCCCN)C(=O)N[C@@H](CCC(=O)O)C(=O)N[C@@](C)(Cc1ccccc1)C(=O)N[C@H](C(=O)N[C@@H](C)C(=O)N[C@@](C)(Cc1ccccc1)C(=O)N[C@H](C(=O)N[C@H](C(=O)N[C@@](C)(CCCCN)C(=O)NCC(=O)NCC(N)=O)C(C)C)C(C)C)[C@@H](C)CC)C(=O)O) [SEQ ID NO 86] | 28 nM | 28 nM | 1.5 pM | 0.0013 nM | 0.0017 nM | 28 nM | 28 nM
5 | H[Aib]EGS[αMeF]TSDV[αMeS]SK([γGlu-Palmitoyl])LEGEAA[αMeK]E[αMeF]IA[αMeF]VV[αMeK]GG-NH2 (N-terminus assumed; SMILES CCCCCCCCCCCCCCCC(=O)N[C@@H](CCC(=O)NCCCC[C@H](NC(=O)[C@H](CO)NC(=O)[C@](C)(CO)NC(=O)[C@@H](NC(=O)[C@H](CC(=O)O)NC(=O)[C@H](CO)NC(=O)[C@@H](NC(=O)[C@](C)(Cc1ccccc1)NC(=O)[C@H](CO)NC(=O)CNC(=O)[C@H](CCC(=O)O)NC(=O)C(C)(C)NC(=O)[C@@H](N)Cc1c[nH]cn1)[C@@H](C)O)C(C)C)C(=O)N[C@@H](CC(C)C)C(=O)N[C@@H](CCC(=O)O)C(=O)NCC(=O)N[C@@H](CCC(=O)O)C(=O)N[C@@H](C)C(=O)N[C@@H](C)C(=O)N[C@@](C)(CCCCN)C(=O)N[C@@H](CCC(=O)O)C(=O)N[C@@](C)(Cc1ccccc1)C(=O)N[C@H](C(=O)N[C@@H](C)C(=O)N[C@@](C)(Cc1ccccc1)C(=O)N[C@H](C(=O)N[C@H](C(=O)N[C@@](C)(CCCCN)C(=O)NCC(=O)NCC(N)=O)C(C)C)C(C)C)[C@@H](C)CC)C(=O)O) [SEQ ID NO 87] | 28 nM | 28 nM | 1.6 pM | 0.0016 nM | 0.0016 nM | 28 nM | 28 nM
6 | HXEGSFTSDVSKFLEGEAAKEFIAFVVKGG (Aib 2; α-MeF 6, 13, 22, 25; α-MeS 11; α-MeK 20, 28; K(ε-γE-Palmitoyl) 12; C-terminal amide) [SEQ ID NO 88] | 28 nM | 28 nM | 5 pM | 0.0043 nM | 0.0057 nM | 28 nM | 28 nM
